Sequences and labels used below:
B1: GST-Nup100(1-307) (domain or fragment, S. cerevisiae, UniProt Q02629 1-307, looked up)
chain: MFGNNRPMFGGSNLSFGSNTSSFGGQQSQQPNSLFGNSNNNNNSTSNNAQSGFGGFTSAAGSNSNSLFGNNNTQNNGAFGQSMGATQNSPFGSLNSSNASNGNTFGGSSSMGSFGGNTNNAFNNNSNSTNSPFGFNKPNTGGTLFGSQNNNSAGTSSLFGGQSTSTTGTFGNTGSSFGTGLNGNGSNIFGAGNNSQSNTTGSLFGNQQSSAFGTNNQQGSLFGQQSQNTNNAFGNQNQLGGSSFGSKPVGSGSLFGQSNNTLGNTTNNRNGLFGQMNSSNQGSSNSGLFGQNSMNSSTQGVFGQNNN
B2: GST-Nup116(348-458) (domain or fragment, S. cerevisiae, UniProt Q02630 348-458, looked up)
chain: GALFGAKPASGGLFGQSAGSKAFGMNTNPTGTTGGLFGQTNQQQSGGGLFGQQQNSNAGGLFGQNNQSQNQSGLFGQQNSSNAFGQPQQQGGLFGSKPAGGLFGQQQGAST
B3: Nup170(980-1502) (domain or fragment, S. cerevisiae, UniProt P38181 980-1502, looked up)
chain: SIEYTATALQERCGSFCSASDILGFRAIEHLRRAKEIGLRNYDSLNYHLKNATALLEQIVDDLSIEKLKEAVSMMLSVNYYPKSIEFLLNIANSMDKGKLACQYVANGFLENDDRKQYYDKRILVYDLVFDTLIKVDELAEKKQSSKTQNQISISNDDEVKLRQKSYEAALKYNDRLFHYHMYDWLVSQNREEKLLDIETPFILPYLMEKAGSSLKISNILWVYYSRRSKFFESAEILYRLATSNFDITLFERIEFLSRANGFCNSVSPLSQKQRIVQLASRIQDACEVAGIQGDILSLVYTDARIDSAIKDELIKTLDGKILSTSELFNDFAVPLSYHEIALFIFKIADFRDHEVIMAKWDELFQSLRMEFNNTGKKEDSMNFINLLSNVLIKIGKNVQDSEFIFPIFELFPIVCNFFYETLPKEHIVSGSIVSIFITAGVSFNKMYYILKELIETSDSDNSVFNKEMTWLIHEWYKSDRKFRDIISYNDIIHLKEYKIDNDPIEKYVKNSGNNLGICFYKE
B4: Nup192(2-960) (domain or fragment, S. cerevisiae, UniProt P47054 2-960, looked up)
chain: KWSAIPFQTLYRSIESGEFDFDLFKEVLPDLQNLNLNTDKLKNNASRSQLEKGEIELSDGSTFKVNQEFIFEAISLSDELNLDEIVACELILSGDTTANNGKVQYFLRRQYILQIVSFIVNCFHEDTELYQELIKNGALVSNILSAFKFIHTQLSEIKQQINKAQILENYNALFQQNIKFRRDFLLREYDILSQILYGLVDKGAIMKNKDFILSLLHHVSELDSNDFFIIYYTPAFFHLFASLRVLPDADVKLLHSQFMKDLKDDSIYTKPVKVALIFIFFAYFIGWCKEDPKRRADTMDFKTDVDEPMTSAVELGAIEQILIFAADTSIVEQDKSMELFYDIRSLLERHIPRLIPKQLLDDEKIFSQTTNSTYNPASATDNMSGRGLWNPSYPGMMSTTGTARLNSMPNNVNEYSYTTIVLSDQTQEFFLSSFDDVLQTIITDCAFLLTKIKDAEEDSLLSGEDLTLDDISLKADLERFFLSIYFFYASRPEYSCTFWSDKESNAYGFIEWCSRCNDNLMRSCFYLMVSSLSFGPENALNVYHYFGENSSISWKNIAQCLSDYTKKISNFNSSLHKRQQFSESTHNDIDSTAVALEEGLNEEAVIFLSSLLTLVGSVTYQVDEDVKSSLSKVFSDVLFEFTKINTPLVGAAFKVISNLVPKLESSRTKFWSFLDSLIFKDSSLNYSSESYRNAFTNVLTKYSDVLGFLQLFHNLISIHSRENNSEYMVFGKLAFPTRLGQGYRKVGIWPYFDYIFNDILAHVDQIVDIRNKRAVQLPILKIIYTGLCSFDYSVILNSIPAAANLDALVDCENFFNYVQECPAIPIFNYIFTEKIYKSIFNVVDVGVDQLSIELEGGKNQAELLQLAVKIINKVLDYQETYVEELFPIVKKHGKTDYFLPKNYSLHGLRSFYDAIFFNIPLVAHLGLYVGVDDQILATNSLRILAKLSERSNGSVASLS
B5: ScKap95 (natural protein, S. cerevisiae, UniProt Q06142 1-861, looked up)
chain: MSTAEFAQLLENSILSPDQNIRLTSETQLKKLSNDNFLQFAGLSSQVLIDENTKLEGRILAALTLKNELVSKDSVKTQQFAQRWITQVSPEAKNQIKTNALTALVSIEPRIANAAAQLIAAIADIELPHGAWPELMKIMVDNTGAEQPENVKRASLLALGYMCESADPQSQALVSSSNNILIAIVQGAQSTETSKAVRLAALNALADSLIFIKNNMEREGERNYLMQVVCEATQAEDIEVQAAAFGCLCKIMSLYYTFMKPYMEQALYALTIATMKSPNDKVASMTVEFWSTICEEEIDIAYELAQFPQSPLQSYNFALSSIKDVVPNLLNLLTRQNEDPEDDDWNVSMSAGACLQLFAQNCGNHILEPVLEFVEQNITADNWRNREAAVMAFGSIMDGPDKVQRTYYVHQALPSILNLMNDQSLQVKETTAWCIGRIADSVAESIDPQQHLPGVVQACLIGLQDHPKVATNCSWTIINLVEQLAEATPSPIYNFYPALVDGLIGAANRIDNEFNARASAFSALTTMVEYATDTVAETSASISTFVMDKLGQTMSVDENQLTLEDAQSLQELQSNILTVLAAVIRKSPSSVEPVADMLMGLFFRLLEKKDSAFIEDDVFYAISALAASLGKGFEKYLETFSPYLLKALNQVDSPVSITAVGFIADISNSLEEDFRRYSDAMMNVLAQMISNPNARRELKPAVLSVFGDIASNIGADFIPYLNDIMALCVAAQNTKPENGTLEALDYQIKVLEAVLDAYVGIVAGLHDKPEALFPYVGTIFQFIAQVAEDPQLYSEDATSRAAVGLIGDIAAMFPDGSIKQFYGQDWVIDYIKRTRSGQLFSQATKDTARWAREQQKRQLSL
B6: GST-Nup100(1-610) (domain or fragment, S. cerevisiae, UniProt Q02629 1-610, looked up)
chain: MFGNNRPMFGGSNLSFGSNTSSFGGQQSQQPNSLFGNSNNNNNSTSNNAQSGFGGFTSAAGSNSNSLFGNNNTQNNGAFGQSMGATQNSPFGSLNSSNASNGNTFGGSSSMGSFGGNTNNAFNNNSNSTNSPFGFNKPNTGGTLFGSQNNNSAGTSSLFGGQSTSTTGTFGNTGSSFGTGLNGNGSNIFGAGNNSQSNTTGSLFGNQQSSAFGTNNQQGSLFGQQSQNTNNAFGNQNQLGGSSFGSKPVGSGSLFGQSNNTLGNTTNNRNGLFGQMNSSNQGSSNSGLFGQNSMNSSTQGVFGQNNNQMQINGNNNNSLFGKANTFSNSASGGLFGQNNQQQGSGLFGQNSQTSGSSGLFGQNNQKQPNTFTQSNTGIGLFGQNNNQQQQSTGLFGAKPAGTTGSLFGGNSSTQPNSLFGTTNVPTSNTQSQQGNSLFGATKLTNMPFGGNPTANQSGSGNSLFGTKPASTTGSLFGNNTASTTVPSTNGLFGNNANNSTSTTNTGLFGAKPDSQSKPALGGGLFGNSNSNSSTIGQNKPVFGGTTQNTGLFGATGTNSSAVGSTGKLFGQNNNTLNVGTQNVPPVNNTTQNALLGTTAVPSLQQAPVTN
B7: His6-Avitag-MBP-Nup116(718-1113) (domain or fragment, S. cerevisiae, UniProt Q02630 718-1113, looked up)
chain: SQSMAQSQNALQQQQQQQRLQIQNNNPYGTNELFSKATVTNTVSYPIQPSATKIKADERKKASLTNAYKMIPKTLFTAKLKTNNSVMDKAQIKVDPKLSISIDKKNNQIAISNQQEENLDESILKASELLFNPDKRSFKNLINNRKMLIASEEKNNGSQNNDMNFKSKSEEQETILGKPKMDEKETANGGERMVLSSKNDGEDSATKHHSRNMDEENKENVADLQKQEYSEDDKKAVFADVAEKDASFINENYYISPSLDTLSSYSLLQLRKVPHLVVGHKSYGKIEFLEPVDLAGIPLTSLGGVIITFEPKTCIIYANLPNRPKRGEGINVRARITCFNCYPVDKSTRKPIKDPNHQLVKRHIERLKKNPNSKFESYDADSGTYVFIVNHAAEQT
modifications: biotin on the Avitag

The target in assay [1] is Nup84-Nup133(521-1157) complex (S. cerevisiae, UniProt P52891 1-726; P36161 521-1157). The assay can be described thus: pull-down.
Sequence of Nup84-Nup133(521-1157) complex (P52891 whole entry, chain 1 of 2): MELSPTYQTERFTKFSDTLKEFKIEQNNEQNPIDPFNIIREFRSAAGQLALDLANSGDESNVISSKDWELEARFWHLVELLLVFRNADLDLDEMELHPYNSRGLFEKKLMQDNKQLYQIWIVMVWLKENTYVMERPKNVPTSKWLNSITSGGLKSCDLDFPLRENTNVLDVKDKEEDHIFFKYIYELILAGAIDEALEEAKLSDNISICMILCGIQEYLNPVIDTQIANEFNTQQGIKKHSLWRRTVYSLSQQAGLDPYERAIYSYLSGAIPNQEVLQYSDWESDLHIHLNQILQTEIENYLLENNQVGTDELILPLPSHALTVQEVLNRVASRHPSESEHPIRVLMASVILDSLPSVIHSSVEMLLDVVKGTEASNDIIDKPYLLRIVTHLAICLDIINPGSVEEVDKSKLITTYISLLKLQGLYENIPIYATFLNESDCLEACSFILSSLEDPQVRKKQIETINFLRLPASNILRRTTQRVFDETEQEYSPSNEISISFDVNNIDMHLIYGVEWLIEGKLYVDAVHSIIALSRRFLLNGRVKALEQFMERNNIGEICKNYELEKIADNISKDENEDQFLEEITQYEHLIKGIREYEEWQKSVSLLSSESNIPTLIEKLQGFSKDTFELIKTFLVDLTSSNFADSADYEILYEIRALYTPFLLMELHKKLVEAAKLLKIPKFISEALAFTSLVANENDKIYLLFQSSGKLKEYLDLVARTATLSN
Sequence of Nup84-Nup133(521-1157) complex (P36161 521-1157, chain 2 of 2): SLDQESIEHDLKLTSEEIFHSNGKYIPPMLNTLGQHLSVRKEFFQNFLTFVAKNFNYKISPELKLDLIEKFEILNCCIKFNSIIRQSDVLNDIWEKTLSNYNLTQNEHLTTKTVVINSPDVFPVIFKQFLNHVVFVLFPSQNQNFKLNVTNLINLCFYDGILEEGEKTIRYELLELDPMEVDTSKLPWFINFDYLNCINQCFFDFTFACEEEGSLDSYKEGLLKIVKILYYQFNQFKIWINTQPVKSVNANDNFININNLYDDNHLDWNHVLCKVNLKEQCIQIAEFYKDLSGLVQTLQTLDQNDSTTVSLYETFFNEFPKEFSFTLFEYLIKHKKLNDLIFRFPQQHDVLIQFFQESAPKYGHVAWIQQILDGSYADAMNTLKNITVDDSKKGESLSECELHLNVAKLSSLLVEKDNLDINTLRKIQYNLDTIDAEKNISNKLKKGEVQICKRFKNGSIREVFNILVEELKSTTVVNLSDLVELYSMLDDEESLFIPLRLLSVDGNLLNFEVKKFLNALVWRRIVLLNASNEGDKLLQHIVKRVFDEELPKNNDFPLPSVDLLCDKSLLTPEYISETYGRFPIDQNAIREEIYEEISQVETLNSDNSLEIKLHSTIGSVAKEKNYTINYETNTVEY
Another assay concerns the target His6-Avitag-MBP-Nup116 (S. cerevisiae, UniProt Q02630 1-1113, biotin on the Avitag). The assay can be described thus: BLI. On the technique in general: In BLI a coated tip is dipped into the sample, and binding shifts an interference pattern.
For the assay “Nup192(2-960)”, the target named is B4. The assay can be described thus: BLI.

For the molecule B1, the binding result in assay [1] is listed as “binds”.

For B2, in assay [1], the binding result is on record as “binds”.

With B3, the binding result with His6-Avitag-MBP-Nup116 is listed as “binds”.

For B4, in the assay with His6-Avitag-MBP-Nup116, the “KD of the dominant of the two binding modes” value was 500 nM and the “fold lower KD than with the Nup116 variant lacking the GLFG-repeats” value is around 15 fold.

With B5, the binding result with His6-Avitag-MBP-Nup116 is given as “binds”.

Regarding B6, the binding result in assay [1] is “binds”.

With B7, in the assay with Nup192(2-960), the binding result is “binds”.

These data come from article PMC5992322 (Cell, 2017).
